Experimental data reported in PMC11969024 (2025).

B1: peptide HD2 (from tick evasin EVA4) / CCL18 (biotinylated, synthetic) (parent complex)
chain 1: EEDDYTAYAPLTCYFT
chain 2: AQVGTNKELCCLVYTSWQIPQKFIVDYSETSPQCPKPGVILLTKRGRQICADPNKKWVQKYISDLKLNA
B2: peptide HD2 (from tick evasin EVA4) / CCL1 (biotinylated, synthetic) (parent complex)
chain 1: EEDDYTAYAPLTCYFT
chain 2: KSMQVPFSRCCFSFAEQEIPLRAILCYRNTSSICSNEGLIFKLKRGKEACALDTVGWVQRHRKMLRHCPSKRK

Variants of: B1

Q: chain 1 T16K was tested. Which enrichment did it give?
A: -0.439 log2 (difference from the parental peptide)

Q: Which enrichment does the source give for chain 1 T16N here?
A: 0.14 log2 (difference from the parental peptide)

Q: Which enrichment does the source give for chain 1 T16F here?
A: -0.482 log2 (difference from the parental peptide)

Q: Which enrichment does the source give for chain 1 E1I here?
A: -1.17 log2 (difference from the parental peptide)

Q: For chain 1 E1A, which enrichment is on record?
A: -0.823 log2 (difference from the parental peptide)

Q: Which enrichment does the source give for chain 1 L11C here?
A: 1.6 log2 (difference from the parental peptide)

Q: With chain 1 L11K as the variant, how does the enrichment read?
A: -1.3 log2 (difference from the parental peptide)

Q: chain 1 L11H was tested. Which enrichment did it give?
A: 0.897 log2 (difference from the parental peptide)

Q: Which enrichment does the source give for chain 1 L11W here?
A: 0.64 log2 (difference from the parental peptide)

Q: For chain 1 F15A, which enrichment is on record?
A: 0.456 log2 (difference from the parental peptide)

Q: How did the enrichment turn out when chain 1 F15G was run?
A: -4.09 log2 (difference from the parental peptide)

Q: For chain 1 Y14G, which enrichment is on record?
A: -8.38 log2 (difference from the parental peptide)

Q: Which enrichment does the source give for chain 1 Y14M here?
A: -2.78 log2 (difference from the parental peptide)

Q: For chain 1 Y14E, which enrichment is on record?
A: -4.21 log2 (difference from the parental peptide)

Q: Which enrichment does the source give for chain 1 Y14H here?
A: -1.38 log2 (difference from the parental peptide)

Q: With chain 1 Y5L as the variant, how does the enrichment read?
A: -0.851 log2 (difference from the parental peptide)

Q: How did the enrichment turn out when chain 1 Y5Q was run?
A: -2.39 log2 (difference from the parental peptide)

Q: chain 1 E2N was tested. Which enrichment did it give?
A: -3.02 log2 (difference from the parental peptide)

Q: chain 1 E2S was tested. Which enrichment did it give?
A: -2.49 log2 (difference from the parental peptide)

Q: How did the enrichment turn out when chain 1 T12N was run?
A: -1.81 log2 (difference from the parental peptide)

Q: For chain 1 T12S, which enrichment is on record?
A: -1.43 log2 (difference from the parental peptide)

Q: With chain 1 P10F as the variant, how does the enrichment read?
A: -9.61 log2 (difference from the parental peptide)

Q: chain 1 Y8V was tested. Which enrichment did it give?
A: -2.87 log2 (difference from the parental peptide)

Q: chain 1 D4K was tested. Which enrichment did it give?
A: -2.75 log2 (difference from the parental peptide)

Q: With chain 1 D4P as the variant, how does the enrichment read?
A: -1.34 log2 (difference from the parental peptide)

Q: How did the enrichment turn out when chain 1 C13I was run?
A: -5.57 log2 (difference from the parental peptide)

Q: How did the enrichment turn out when chain 1 A7N was run?
A: -0.0931 log2 (difference from the parental peptide)

Q: chain 1 D3W was tested. Which enrichment did it give?
A: -1.95 log2 (difference from the parental peptide)

Q: With chain 1 D3M as the variant, how does the enrichment read?
A: -1.4 log2 (difference from the parental peptide)

Q: For chain 1 T6V, which enrichment is on record?
A: -3.07 log2 (difference from the parental peptide)

Q: chain 1 T6F was tested. Which enrichment did it give?
A: -2.21 log2 (difference from the parental peptide)

Q: Which enrichment does the source give for chain 1 T6E here?
A: 2.48 log2 (difference from the parental peptide)

Variants of: B2

Q: Which enrichment does the source give for chain 1 E1N here?
A: -1.4 log2 (difference from the parental peptide)

Q: How did the enrichment turn out when chain 1 T6K was run?
A: -3.59 log2 (difference from the parental peptide)

Q: For chain 1 T6R, which enrichment is on record?
A: -1.22 log2 (difference from the parental peptide)

Q: For chain 1 T6L, which enrichment is on record?
A: -3.32 log2 (difference from the parental peptide)

Q: Which enrichment does the source give for chain 1 T6M here?
A: -2.14 log2 (difference from the parental peptide)

Q: For chain 1 T6S, which enrichment is on record?
A: 4.57 log2 (difference from the parental peptide)

Q: Which enrichment does the source give for chain 1 C13W here?
A: -8.88 log2 (difference from the parental peptide)

Q: chain 1 C13F was tested. Which enrichment did it give?
A: -7.86 log2 (difference from the parental peptide)

Q: For chain 1 Y14H, which enrichment is on record?
A: -5.22 log2 (difference from the parental peptide)

Q: How did the enrichment turn out when chain 1 Y14A was run?
A: -7.68 log2 (difference from the parental peptide)

Q: For chain 1 Y14S, which enrichment is on record?
A: -6.58 log2 (difference from the parental peptide)

Q: With chain 1 Y5N as the variant, how does the enrichment read?
A: -6.94 log2 (difference from the parental peptide)

Q: How did the enrichment turn out when chain 1 T12K was run?
A: -1.81 log2 (difference from the parental peptide)

Q: How did the enrichment turn out when chain 1 T12D was run?
A: -0.0823 log2 (difference from the parental peptide)

Q: How did the enrichment turn out when chain 1 T12M was run?
A: -0.791 log2 (difference from the parental peptide)

Q: Which enrichment does the source give for chain 1 T12Q here?
A: -2.05 log2 (difference from the parental peptide)

Q: With chain 1 E2W as the variant, how does the enrichment read?
A: -0.836 log2 (difference from the parental peptide)

Q: How did the enrichment turn out when chain 1 E2P was run?
A: -5.28 log2 (difference from the parental peptide)

Q: Which enrichment does the source give for chain 1 E2R here?
A: -4.77 log2 (difference from the parental peptide)

Q: For chain 1 E2D, which enrichment is on record?
A: 1.47 log2 (difference from the parental peptide)

Q: Which enrichment does the source give for chain 1 E2N here?
A: -2.76 log2 (difference from the parental peptide)

Q: For chain 1 Y8W, which enrichment is on record?
A: -3.69 log2 (difference from the parental peptide)

Q: For chain 1 Y8I, which enrichment is on record?
A: -5.15 log2 (difference from the parental peptide)

Q: chain 1 Y8D was tested. Which enrichment did it give?
A: -6.77 log2 (difference from the parental peptide)

Q: chain 1 A7V was tested. Which enrichment did it give?
A: -4.61 log2 (difference from the parental peptide)

Q: Which enrichment does the source give for chain 1 A7K here?
A: 2.4 log2 (difference from the parental peptide)

Q: How did the enrichment turn out when chain 1 A7P was run?
A: -0.46 log2 (difference from the parental peptide)

Q: With chain 1 D4E as the variant, how does the enrichment read?
A: -2.17 log2 (difference from the parental peptide)

Q: How did the enrichment turn out when chain 1 D4M was run?
A: -5.27 log2 (difference from the parental peptide)

Q: With chain 1 D3H as the variant, how does the enrichment read?
A: -3.87 log2 (difference from the parental peptide)

Q: For chain 1 D3M, which enrichment is on record?
A: -2.32 log2 (difference from the parental peptide)

Q: For chain 1 D3L, which enrichment is on record?
A: -3.89 log2 (difference from the parental peptide)

Q: Which enrichment does the source give for chain 1 T16Y here?
A: -0.704 log2 (difference from the parental peptide)

Q: chain 1 P10E was tested. Which enrichment did it give?
A: -5.54 log2 (difference from the parental peptide)

Q: For chain 1 P10V, which enrichment is on record?
A: -9.61 log2 (difference from the parental peptide)

Q: With chain 1 F15Q as the variant, how does the enrichment read?
A: 0.462 log2 (difference from the parental peptide)

Q: For chain 1 F15M, which enrichment is on record?
A: 1.5 log2 (difference from the parental peptide)

Q: With chain 1 F15I as the variant, how does the enrichment read?
A: 2.23 log2 (difference from the parental peptide)

Q: chain 1 F15P was tested. Which enrichment did it give?
A: -0.0179 log2 (difference from the parental peptide)

Q: With chain 1 A9V as the variant, how does the enrichment read?
A: -7.56 log2 (difference from the parental peptide)

Q: With chain 1 A9W as the variant, how does the enrichment read?
A: -3 log2 (difference from the parental peptide)

Q: chain 1 A9T was tested. Which enrichment did it give?
A: -4.64 log2 (difference from the parental peptide)

Q: For chain 1 A9Q, which enrichment is on record?
A: -0.52 log2 (difference from the parental peptide)
